In general, Kd refers to the free concentration of one partner at which half of the binding sites on the other are occupied at equilibrium, for simple one-to-one binding. Low values mean higher affinity, high ones lower affinity.

Assay [1] concerns the target T1, PFV-Gag-NtD (amino terminal domain of Prototypic Foamy Virus Gag, residues 1-179) (Prototypic foamy virus (PFV), UniProt P14349 1-179).
T1 chain: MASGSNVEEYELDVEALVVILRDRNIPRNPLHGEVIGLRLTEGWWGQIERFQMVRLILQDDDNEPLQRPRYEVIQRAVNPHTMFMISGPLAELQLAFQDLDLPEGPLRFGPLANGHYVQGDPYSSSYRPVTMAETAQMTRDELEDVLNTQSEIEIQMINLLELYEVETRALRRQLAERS
Kind of assay: AUC.

The next assay deals with T2, PFV-Gag-NtD L21S (Prototypic foamy virus (PFV), UniProt P14349 1-179, L21S).
T2 construct: Gag of Prototypic Foamy Virus, residues 1-179 (Gag-NtD) with L21S
T2 sequence (looked up): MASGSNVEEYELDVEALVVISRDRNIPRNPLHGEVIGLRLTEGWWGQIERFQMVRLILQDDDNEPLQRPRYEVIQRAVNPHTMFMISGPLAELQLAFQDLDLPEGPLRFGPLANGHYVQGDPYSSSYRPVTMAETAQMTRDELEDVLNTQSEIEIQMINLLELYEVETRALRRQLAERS
Kind of assay: AUC; sedimentation velocity of 75 µM equimolar mixtures of Gag-NtD and Env peptide, absorbance at 280 nm; bound fraction from the integrated absorbance of the 3S species in C(S). The note with it: both partners purified.

The target of the next assay is T3, PFV-Gag-NtD L21N (Prototypic foamy virus (PFV), UniProt P14349 1-179, L21N).
T3 construct: Gag of Prototypic Foamy Virus, residues 1-179 (Gag-NtD) with L21N
T3 sequence (looked up): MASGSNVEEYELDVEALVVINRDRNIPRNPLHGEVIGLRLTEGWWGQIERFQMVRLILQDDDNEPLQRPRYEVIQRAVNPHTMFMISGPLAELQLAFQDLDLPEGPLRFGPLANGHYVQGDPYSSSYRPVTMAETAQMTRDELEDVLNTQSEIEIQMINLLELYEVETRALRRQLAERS
Described as above. The note with it: both partners purified.

For a further assay, the target named is T4, PFV-Gag-NtD L17S (Prototypic foamy virus (PFV), UniProt P14349 1-179, L17S).
T4 construct: Gag of Prototypic Foamy Virus, residues 1-179 (Gag-NtD) with L17S
T4 sequence (looked up): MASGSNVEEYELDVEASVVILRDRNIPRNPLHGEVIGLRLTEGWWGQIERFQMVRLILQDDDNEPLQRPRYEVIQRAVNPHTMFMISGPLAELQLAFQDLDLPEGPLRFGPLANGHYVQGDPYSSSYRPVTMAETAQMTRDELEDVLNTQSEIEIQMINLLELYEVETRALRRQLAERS
The assay is described as above. The note with it: both partners purified.

The next assay has as its target T5, PFV-Gag-NtD V18S (Prototypic foamy virus (PFV), UniProt P14349 1-179, V18S).
T5 construct: Gag of Prototypic Foamy Virus, residues 1-179 (Gag-NtD) with V18S
T5 sequence (looked up): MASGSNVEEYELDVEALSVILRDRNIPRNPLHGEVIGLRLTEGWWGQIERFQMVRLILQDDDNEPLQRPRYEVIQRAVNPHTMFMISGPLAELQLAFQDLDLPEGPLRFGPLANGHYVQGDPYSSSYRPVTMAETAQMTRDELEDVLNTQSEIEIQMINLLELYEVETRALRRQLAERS
The description is as above. To be noted: both partners purified.

The next assay concerns the target T6, PFV-Gag-NtD V18S/L21S (Prototypic foamy virus (PFV), UniProt P14349 1-179, V18S | L21S).
T6 construct: Gag of Prototypic Foamy Virus, residues 1-179 (Gag-NtD) with V18S and L21S
T6 sequence (looked up): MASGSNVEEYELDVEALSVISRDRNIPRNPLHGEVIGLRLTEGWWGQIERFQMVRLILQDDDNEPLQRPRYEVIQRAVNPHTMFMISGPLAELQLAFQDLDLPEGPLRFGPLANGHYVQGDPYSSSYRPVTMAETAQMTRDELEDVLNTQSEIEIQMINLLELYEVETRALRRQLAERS
Described as above. The note with it: both partners purified.

For a further assay, the target named is T7, PFV-Gag-NtD V14S/V18S (Prototypic foamy virus (PFV), UniProt P14349 1-179, V14S | V18S).
T7 construct: Gag of Prototypic Foamy Virus, residues 1-179 (Gag-NtD) with V14S and V18S
T7 sequence (looked up): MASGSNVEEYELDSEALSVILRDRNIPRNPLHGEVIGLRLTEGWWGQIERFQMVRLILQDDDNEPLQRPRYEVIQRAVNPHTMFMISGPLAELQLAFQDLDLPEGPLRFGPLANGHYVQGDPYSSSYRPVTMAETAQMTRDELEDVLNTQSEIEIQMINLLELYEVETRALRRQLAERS
The description is as above. The note with it: both partners purified.

In assay [2] the target is T8, PFV-Gag-NtD (amino terminal domain of Prototypic Foamy Virus Gag, residues 1-179) (Prototypic foamy virus (PFV), UniProt P14349 1-179).
T8 construct: source: E. coli Rosetta 2 (DE3), purified (Ni-NTA, Superdex 200 SEC); not shown: His-tag, N-terminal, kept
T8 sequence: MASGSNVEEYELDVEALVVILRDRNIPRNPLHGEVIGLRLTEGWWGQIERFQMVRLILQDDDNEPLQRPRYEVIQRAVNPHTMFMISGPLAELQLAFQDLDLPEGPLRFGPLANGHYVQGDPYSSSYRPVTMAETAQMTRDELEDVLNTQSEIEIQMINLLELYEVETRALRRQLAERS
The description is as above. The note with it: both partners purified.

Another assay has as its target T9, PFV-Gag-NtD N29Q (Prototypic foamy virus (PFV), UniProt P14349 1-179, N29Q).
T9 construct: Gag of Prototypic Foamy Virus, residues 1-179 (Gag-NtD) with N29Q
T9 sequence (looked up): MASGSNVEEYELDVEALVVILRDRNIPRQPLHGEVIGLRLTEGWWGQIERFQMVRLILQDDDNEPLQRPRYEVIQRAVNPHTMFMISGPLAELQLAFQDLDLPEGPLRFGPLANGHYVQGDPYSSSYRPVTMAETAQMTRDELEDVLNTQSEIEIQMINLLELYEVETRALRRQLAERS
The assay is described as above. The note with it: both partners purified.

B1: PFV Env leader peptide residues 1-20 (peptide, UniProt P14351 1-20, looked up)
peptide: MAPPMTLQQWIIWKKMNKAH
notes: Envelope (Env) protein of Prototypic Foamy Virus, N-terminal leader peptide region, residues 1-20 (Met1 to His20); the text names M1, A2, P3, P4, M5, T6, L7, Q9, W10, W13, M16, A19, H20; also called Env_(1-20); Env(1-20); source: synthetic peptide, bought HPLC purified: Pepceuticals Ltd
Molecule B1 returned a Kd in assay [1] of 7.5 µM. For the same molecule, the “fold decrease of affinity against wt PFV-Gag-NtD” value stood at 5 fold with PFV-Gag-NtD L21S, 2 fold with PFV-Gag-NtD L17S and 2 fold in the assay with PFV-Gag-NtD V18S. Further, the binding result with PFV-Gag-NtD L21N, in the assay with PFV-Gag-NtD V18S/L21S, in the assay with PFV-Gag-NtD V14S/V18S and with PFV-Gag-NtD N29Q was “binds” throughout. In addition, in assay [2], the Ka was determined as 130000 M⁻¹.
